According to patent US20200239517A1:

Experiments:
[1] = molecular target: human polyclonal IgG (Gammanorm) (human); assay: SPR; ratio to reference Zvar1 after 0.5M NaOH cycles
[2] = molecular target: human polyclonal IgG (Gammanorm) (human); assay: SPR, ligand on chip; IgG signal left after 0.5M NaOH cycles
[3] = molecular target: human polyclonal IgG (Gammanorm) (human); assay: SPR; ratio to reference Zvar4 after 0.5M NaOH cycles
[4] = molecular target: human polyclonal IgG (Gammanorm) (human); assay: SPR, ligand on chip; IgG signal left after 1M NaOH cycles
[5] = molecular target: human polyclonal IgG (Gammanorm) (human); assay: SPR; ratio to reference Zvar4 after 1M NaOH cycles
[6] = molecular target: IgG1 monoclonal antibody (probe molecule of Example 1); assay: Biacore SPR, ligand on CM5 chip, IgG1 mAb as probe
[7] = molecular target: human polyclonal IgG (Gammanorm) (human); assay: SPR; ratio to reference Zvar6 after 0.5M NaOH cycles

| Substance | Capacity relative to reference [1] | Capacity after 96-100 cycles [2] [%] | Capacity relative to ref. 100 cycles [3] | Remaining capacity 100 cycles (%) [2] [%] | other results |
| --- | --- | --- | --- | --- | --- |
| Zvar(N11E, Q32E, K50R)1 (designed binder) | 1.04 | 53 |  |  |  |
| Zvar(N11K, H18K, D37E, A42R, N43A, L44I)1 (designed binder) | 1.31 | 59 |  |  |  |
| Zvar(N11K, H18K, S33K, D37E, A42R, N43A, L44I, K50R, L51Y)1 (designed binder) | 1.46 | 67 |  |  |  |
| Zvar(Q9A, N11E, N28A, N43A)4 (designed binder) |  |  | 1.19 | 80 | Remaining capacity 100 cycles (%) [4]: 55%; Capacity relative to ref. 200 cycles [3]: 1.72; Capacity relative to ref. 300 cycles [3]: 2.62; Remaining capacity 200 cycles (%) [2]: 62%; Remaining capacity 300 cycles (%) [2]: 42%; Capacity relative to ref. 100 cycles [5]: 2.04 |
| Zvar(Q9A, N11E, N28A, Q40V, A42K, N43A, L44I)1 (designed binder) | 1.35 | 65 |  |  |  |
| Zvar(Q9A, N11E, N43A)4 (designed binder) |  |  | 1.21 | 81 | Capacity relative to ref. 200 cycles [3]: 1.72; Capacity relative to ref. 300 cycles [3]: 2.56; Remaining capacity 200 cycles (%) [2]: 62%; Remaining capacity 300 cycles (%) [2]: 41% |
| Zvar(Q9A, N11E, Q40V, A42K, N43A, L44I)1 (designed binder) | 1.4 | 66 |  |  | Kd [6]: 1.07 nM; koff [6]: 0.000437 s⁻¹; kon [6]: 410000 M⁻¹ s⁻¹ |
| Zvar(Q9A, N11K, H18K, S33K, D37E, A42R, N43A, L44I, K50R, L51Y)1 (designed binder) | 1.28 | 59 |  |  |  |
| parental B domain of Protein A (from UniProt A0A0H3K686 212-269) |  |  |  |  | Reference capacity after 96-100 cycles [2]: 35% |
| parental C domain of Protein A (from UniProt A0A0H3K686 270-327) |  |  |  |  | Reference capacity after 96-100 cycles [2]: 49% |

Now from value to substance, other results behind:

| Capacity relative to reference [1] | Capacity after 96-100 cycles [2] [%] | Capacity relative to ref. 100 cycles [3] | Remaining capacity 100 cycles (%) [2] [%] | Substance | other results |
| --- | --- | --- | --- | --- | --- |
|  |  | 1.13 | 81 | Zvar(Q9A, N11E, D37E, Q40V, A42K, N43A, L44I)4 (designed binder) |  |
|  |  | 1.17 | 84 | Zvar(Q9A, N11E, D37E, Q40V, A42R, N43A, L44I)4 (designed binder) |  |
|  |  | 1.24 | 84 | Zvar(Q9A, N11E, N28A, Q40V, A42K, N43A, L44I)4 (designed binder) |  |
|  |  | 1.34 | 90 | Zvar(Q9A, N11E, Q40V, A42K, N43A, L44I)4 (designed binder) | Remaining capacity 100 cycles (%) [4]: 56%; Capacity relative to ref. 200 cycles [3]: 2.06; Capacity relative to ref. 300 cycles [3]: 3.56; Remaining capacity 200 cycles (%) [2]: 74%; Remaining capacity 300 cycles (%) [2]: 57%; Capacity relative to ref. 100 cycles [5]: 2.07 |
|  |  |  | 87 | Zvar(Q9A, N11E, Q40V, A42K, N43A, L44I)6 (designed binder) | Capacity relative to ref. 100 cycles [7]: 1.3 |
|  |  | 1.25 | 84 | Zvar(Q9A, N11E, Q40V, A42K, N43E, L44I)4 (designed binder) | Remaining capacity 100 cycles (%) [4]: 54%; Capacity relative to ref. 200 cycles [3]: 1.81; Capacity relative to ref. 300 cycles [3]: 3; Remaining capacity 200 cycles (%) [2]: 65%; Remaining capacity 300 cycles (%) [2]: 48%; Capacity relative to ref. 100 cycles [5]: 2 |
| 1.4 | 63 |  |  | Zvar(Q9A, N11K, H18K, D37E, A42R, N43A, L44I)1 (designed binder) |  |
| 1.49 | 67 |  |  | Zvar(Q9A, N11K, H18K, D37E, A42R, N43A, L44I, K50R)1 (designed binder) |  |
